B1: CD3B2026 (scFv)
scFv: QVQLVQSGAEVKKPGSSVKVSCKASGYTFTRSTMHWVKQAPGQGLEWIGYINPSSAYTNYNQKFQGRVTLTADKSTSTAYMELSSLRSEDTAVYYCASPQVHYDYNGFPYWGQGTLVTVSSGGSEGKSSGSGSESKSTGGSEIVLTQSPATLSASPGERVTLSCSASSSVSYMNWYQQKPGTAPRRWIYDSSKLASGVPARFSGSGSGRDYTLTISSLEPEDFAVYYCQQWSRNPPTFGGGTKVEIK
B2: CD3B2057 (scFv)
scFv: QVQLVQSGAEVKKPGSSVKVSCKASGYTFTRSTMHWVRQAPGQGLEWIGYINPSSAYTNYNQKFQGRVTLTADKSTSTAYMELSSLRSEDTAVYYCASPQVHYDYNGFPYWGQGTLVTVSSGGSEGKSSGSGSESKSTGGSEIVLTQSPATLSASPGERVTLSCSASSSVSYMNWYQQKPGQAPRRLIYDSSKLASGVPARFSGSGSGRDYTLTISSLEPEDFAVYYCQQWSRNPPTFGGGTKVEIK
B3: CD3B2028 (scFv)
scFv: QVQLVQSGAEVKKPGSSVKVSCKASGYTFTRSTMHWVKQAPGQGLEWIGYINPSSAYTNYNQKFQGRVTLTADKSTSTAYMELSSLRSEDTAVYYCASPQVHYDYNGFPYWGQGTLVTVSSGGSEGKSSGSGSESKSTGGSEIVLTQSPATLSASPGERVTLSCSASSSVSYMNWYQQKPGTAPRRLIYDSSKLASGVPARFSGSGSGRDYTLTISSLEPEDFAVYYCQQWSRNPPTFGGGTKVEIK
B4: CD3B2055 (scFv)
scFv: QVQLVQSGAEVKKPGSSVKVSCKASGYTFTRSTMHWVRQAPGQGLEWIGYINPSSAYTNYNQKFQGRVTLTADKSTSTAYMELSSLRSEDTAVYYCASPQVHYDYNGFPYWGQGTLVTVSSGGSEGKSSGSGSESKSTGGSEIVLTQSPATLSASPGERVTLSCSASSSVSYMNWYQQKPGTSPRRWIYDSSKLASGVPARFSGSGSGRDYTLTISSLEPEDFAVYYCQQWSRNPPTFGGGTKVEIK
B5: CD3B2054 (scFv)
scFv: QVQLVQSGAEVKKPGSSVKVSCKASGYTFTRSTMHWVKQAPGQGLEWMGYINPSSAYTNYAQKFQGRVTLTADKSTSTAYMELSSLRSEDTAVYYCASPQVHYDYNGFPYWGQGTLVTVSSGGSEGKSSGSGSESKSTGGSEIVLTQSPATLSASPGERVTLSCSASSSVSYMNWYQQKPGQAPRRLIYDSSKLASGVPARFSGSGSGRDYTLTISSLEPEDFAVYYCQQWSRNPPTFGGGTKVEIK
B6: CD3B2032 (scFv)
scFv: QVQLVQSGAEVKKPGSSVKVSCKASGYTFTRSTMHWVKQAPGQGLEWMGYINPSSAYTNYNQKFQGRVTLTADKSTSTAYMELSSLRSEDTAVYYCASPQVHYDYNGFPYWGQGTLVTVSSGGSEGKSSGSGSESKSTGGSEIVLTQSPATLSASPGERVTLSCSASSSVSYMNWYQQKPGTSPRRLIYDSSKLASGVPARFSGSGSGRDYTLTISSLEPEDFAVYYCQQWSRNPPTFGGGTKVEIK
B7: CD3B2027 (scFv)
scFv: QVQLVQSGAEVKKPGSSVKVSCKASGYTFTRSTMHWVKQAPGQGLEWIGYINPSSAYTNYNQKFQGRVTLTADKSTSTAYMELSSLRSEDTAVYYCASPQVHYDYNGFPYWGQGTLVTVSSGGSEGKSSGSGSESKSTGGSEIVLTQSPATLSASPGERVTLSCSASSSVSYMNWYQQKPGTSPRRLIYDSSKLASGVPARFSGSGSGRDYTLTISSLEPEDFAVYYCQQWSRNPPTFGGGTKVEIK
B8: CD3B2049 (scFv)
scFv: QVQLVQSGAEVKKPGSSVKVSCKASGYTFTRSTMHWVKQAPGQGLEWMGYINPSSAYTNYNQKFQGRVTLTADKSTSTAYMELSSLRSEDTAVYYCASPQVHYDYNGFPYWGQGTLVTVSSGGSEGKSSGSGSESKSTGGSEIVLTQSPATLSASPGERVTLSCSASSSVSYMNWYQQKPGTSPRRWIYDSSKLASGVPARFSGSGSGRDYTLTISSLEPEDFAVYYCQQWSRNPPTFGGGTKVEIK
B9: CD3B2053 (scFv)
scFv: QVQLVQSGAEVKKPGSSVKVSCKASGYTFTRSTMHWVKQAPGQGLEWMGYINPSSAYTNYAQKFQGRVTLTADKSTSTAYMELSSLRSEDTAVYYCASPQVHYDYNGFPYWGQGTLVTVSSGGSEGKSSGSGSESKSTGGSEIVLTQSPATLSASPGERVTLSCSASSSVSYMNWYQQKPGQSPRRLIYDSSKLASGVPARFSGSGSGRDYTLTISSLEPEDFAVYYCQQWSRNPPTFGGGTKVEIK
B10: CD3B2050 (scFv)
scFv: QVQLVQSGAEVKKPGSSVKVSCKASGYTFTRSTMHWVKQAPGQGLEWMGYINPSSAYTNYNQKFQGRVTLTADKSTSTAYMELSSLRSEDTAVYYCASPQVHYDYNGFPYWGQGTLVTVSSGGSEGKSSGSGSESKSTGGSEIVLTQSPATLSASPGERVTLSCSASSSVSYMNWYQQKPGQSPRRLIYDSSKLASGVPARFSGSGSGRDYTLTISSLEPEDFAVYYCQQWSRNPPTFGGGTKVEIK
B11: CD3B2047 (scFv)
scFv: QVQLVQSGAEVKKPGSSVKVSCKASGYTFTRSTMHWVKQAPGQGLEWIGYINPSSAYTNYNQKFQGRVTLTADKSTSTAYMELSSLRSEDTAVYYCASPQVHYDYNGFPYWGQGTLVTVSSGGSEGKSSGSGSESKSTGGSEIVLTQSPATLSASPGERVTLSCSASSSVSYMNWYQQKPGQSPRRLIYDSSKLASGVPARFSGSGSGRDYTLTISSLEPEDFAVYYCQQWSRNPPTFGGGTKVEIK
B12: CD3B2052 (scFv)
scFv: QVQLVQSGAEVKKPGSSVKVSCKASGYTFTRSTMHWVKQAPGQGLEWMGYINPSSAYTNYAQKFQGRVTLTADKSTSTAYMELSSLRSEDTAVYYCASPQVHYDYNGFPYWGQGTLVTVSSGGSEGKSSGSGSESKSTGGSEIVLTQSPATLSASPGERVTLSCSASSSVSYMNWYQQKPGTSPRRWIYDSSKLASGVPARFSGSGSGRDYTLTISSLEPEDFAVYYCQQWSRNPPTFGGGTKVEIK
B13: CD3B2056 (scFv)
scFv: QVQLVQSGAEVKKPGSSVKVSCKASGYTFTRSTMHWVRQAPGQGLEWIGYINPSSAYTNYNQKFQGRVTLTADKSTSTAYMELSSLRSEDTAVYYCASPQVHYDYNGFPYWGQGTLVTVSSGGSEGKSSGSGSESKSTGGSEIVLTQSPATLSASPGERVTLSCSASSSVSYMNWYQQKPGQSPRRLIYDSSKLASGVPARFSGSGSGRDYTLTISSLEPEDFAVYYCQQWSRNPPTFGGGTKVEIK
B14: CD3B2059 (scFv)
scFv: QVQLVQSGAEVKKPGSSVKVSCKASGYTFTRSTMHWVKQAPGQGLEWIGYINPSSAYTNYAQKFQGRVTLTADKSTSTAYMELSSLRSEDTAVYYCASPQVHYDYNGFPYWGQGTLVTVSSGGSEGKSSGSGSESKSTGGSEIVLTQSPATLSASPGERVTLSCSASSSVSYMNWYQQKPGQSPRRLIYDSSKLASGVPARFSGSGSGRDYTLTISSLEPEDFAVYYCQQWSRNPPTFGGGTKVEIK
B15: CD3B2040 (scFv)
scFv: QVQLVQSGAEVKKPGSSVKVSCKASGYTFTRSTMHWVKQAPGQGLEWMGYINPSSAYTNYAQKFQGRVTLTADKSTSTAYMELSSLRSEDTAVYYCASPQVHYDYNGFPYWGQGTLVTVSSGGSEGKSSGSGSESKSTGGSEIVLTQSPATLSASPGERVTLSCSASSSVSYMNWYQQKPGQAPRRWIYDSSKLASGVPARFSGSGSGRDYTLTISSLEPEDFAVYYCQQWSRNPPTFGGGTKVEIK
B16: CD3B2046 (scFv)
scFv: QVQLVQSGAEVKKPGSSVKVSCKASGYTFTRSTMHWVKQAPGQGLEWIGYINPSSAYTNYNQKFQGRVTLTADKSTSTAYMELSSLRSEDTAVYYCASPQVHYDYNGFPYWGQGTLVTVSSGGSEGKSSGSGSESKSTGGSEIVLTQSPATLSASPGERVTLSCSASSSVSYMNWYQQKPGTSPRRWIYDSSKLASGVPARFSGSGSGRDYTLTISSLEPEDFAVYYCQQWSRNPPTFGGGTKVEIK
B17: CD3B2048 (scFv)
scFv: QVQLVQSGAEVKKPGSSVKVSCKASGYTFTRSTMHWVKQAPGQGLEWIGYINPSSAYTNYNQKFQGRVTLTADKSTSTAYMELSSLRSEDTAVYYCASPQVHYDYNGFPYWGQGTLVTVSSGGSEGKSSGSGSESKSTGGSEIVLTQSPATLSASPGERVTLSCSASSSVSYMNWYQQKPGQAPRRLIYDSSKLASGVPARFSGSGSGRDYTLTISSLEPEDFAVYYCQQWSRNPPTFGGGTKVEIK
B18: CD3B2036 (scFv)
scFv: QVQLVQSGAEVKKPGSSVKVSCKASGYTFTRSTMHWVKQAPGQGLEWMGYINPSSAYTNYAQKFQGRVTLTADKSTSTAYMELSSLRSEDTAVYYCASPQVHYDYNGFPYWGQGTLVTVSSGGSEGKSSGSGSESKSTGGSEIVLTQSPATLSASPGERVTLSCSASSSVSYMNWYQQKPGTAPRRWIYDSSKLASGVPARFSGSGSGRDYTLTISSLEPEDFAVYYCQQWSRNPPTFGGGTKVEIK

The binders below were run against T1, TRCW5 antigen (CD3δε-Fc-Avi) (biotinylated (site not stated)) (assay: ELISA after heat).
T1 construct: also called recombinant CD3
T1 sequence (chain, as listed by the source mutant limits assumed): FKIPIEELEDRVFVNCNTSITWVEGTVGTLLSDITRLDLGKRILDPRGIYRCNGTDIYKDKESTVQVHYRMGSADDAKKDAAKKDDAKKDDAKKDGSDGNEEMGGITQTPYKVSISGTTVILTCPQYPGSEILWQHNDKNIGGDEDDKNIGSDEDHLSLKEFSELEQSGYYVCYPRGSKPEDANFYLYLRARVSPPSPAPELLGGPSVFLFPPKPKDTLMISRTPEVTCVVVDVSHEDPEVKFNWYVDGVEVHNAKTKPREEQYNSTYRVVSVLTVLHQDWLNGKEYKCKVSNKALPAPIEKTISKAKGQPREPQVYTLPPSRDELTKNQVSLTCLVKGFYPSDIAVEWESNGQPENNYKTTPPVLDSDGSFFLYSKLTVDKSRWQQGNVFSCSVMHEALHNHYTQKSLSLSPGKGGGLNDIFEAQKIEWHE
For B1, the “% Retained 55° C.” value was 106%, the “% Retained 60° C.” value was 98% and the “% Retained 65° C.” value was 29%.
B2 was tested, and the “% Retained 55° C.” value was 92%, the “% Retained 60° C.” value was 66% and the “% Retained 65° C.” value was 3%.
With B3 the “% Retained 55° C.” value was 104%, the “% Retained 60° C.” value was 92% and the “% Retained 65° C.” value was 15%.
B4 was tested, and the “% Retained 55° C.” value was 102%, the “% Retained 60° C.” value was 96% and the “% Retained 65° C.” value was 11%.
For B5, the “% Retained 55° C.” value was 106%, the “% Retained 60° C.” value was 100% and the “% Retained 65° C.” value was 23%.
With B6 the “% Retained 55° C.” value was 106%, the “% Retained 60° C.” value was 88% and the “% Retained 65° C.” value was 20%.
For B7, the “% Retained 55° C.” value was 104%, the “% Retained 60° C.” value was 93% and the “% Retained 65° C.” value was 9%.
B8 was tested, and the “% Retained 55° C.” value was 108%, the “% Retained 60° C.” value was 105% and the “% Retained 65° C.” value was 29%.
B9 was tested, and the “% Retained 55° C.” value was 115%, the “% Retained 60° C.” value was 112% and the “% Retained 65° C.” value was 30%.
With B10 the “% Retained 55° C.” value was 108%, the “% Retained 60° C.” value was 102% and the “% Retained 65° C.” value was 41%.
B11 was tested, and the “% Retained 55° C.” value was 106%, the “% Retained 60° C.” value was 98% and the “% Retained 65° C.” value was 15%.
With B12 the “% Retained 55° C.” value was 112%, the “% Retained 60° C.” value was 111% and the “% Retained 65° C.” value was 25%.
In the case of B13, the “% Retained 55° C.” value is reported as 101%, the “% Retained 60° C.” value is reported as 80% and the “% Retained 65° C.” value is reported as 9%.
B14 was tested, and the “% Retained 55° C.” value was 112%, the “% Retained 60° C.” value was 98% and the “% Retained 65° C.” value was 13%.
With B15 the “% Retained 55° C.” value was 107%, the “% Retained 60° C.” value was 106% and the “% Retained 65° C.” value was 52%.
For B16, the “% Retained 55° C.” value was 111%, the “% Retained 60° C.” value was 113% and the “% Retained 65° C.” value was 30%.
With B17 the “% Retained 55° C.” value was 105%, the “% Retained 60° C.” value was 95% and the “% Retained 65° C.” value was 22%.
In the case of B18, the “% Retained 55° C.” value is reported as 108%, the “% Retained 60° C.” value is reported as 105% and the “% Retained 65° C.” value is reported as 35%.

From US20250145711A1 (Janssen / Centocor, published 2025)
